Measurements as given in IntAct's records for PubMed 27309808.

B1: Sperm-egg fusion protein Juno (Homo sapiens), A6ND01-1 (parent)
chain: MACWWPLLLELWTVMPTWAGDELLNICMNAKHHKRVPSPEDKLYEECIPWKDNACCTLTTSWEAHLDVSPLYNFSLFHCGLLMPGCRKHFIQAICFYECSPNLGPWIQPVGSLGWEVAPSGQGERVVNVPLCQEDCEEWWEDCRMSYTCKSNWRGGWDWSQGKNRCPKGAQCLPFSHYFPTPADLCEKTWSNSFKASPERRNSGRCLQKWFEPAQGNPNVAVARLFASSAPSWELSYTIMVCSLFLPFLS
B2: Izumo sperm-egg fusion protein 1 (Homo sapiens), Q8IYV9-1 (parent)
chain: MGPHFTLLCAALAGCLLPAEGCVICDPSVVLALKSLEKDYLPGHLDAKHHKAMMERVENAVKDFQELSLNEDAYMGVVDEATLQKGSWSLLKDLKRITDSDVKGDLFVKELFWMLHLQKETFATYVARFQKEAYCPNKCGVMLQTLIWCKNCKKEVHACRKSYDCGERNVEVPQMEDMILDCELNWHQASEGLTDYSFYRVWGNNTETLVSKGKEATLTKPMVGPEDAGSYRCELGSVNSSPATIINFHVTVLPKMIKEEKPSPNIVTPGEATTESSISLQPLQPEKMLASRLLGLLICGSLALITGLTFAIFRRRKVIDFIKSSLFGLGSGAAEQTQVPKEKATDSRQQ

Variants of: B1
Details: with IZUMO1, Q8IYV9-1

| effect of a mutation on the interaction | Variant |
| --- | --- |
| decreasing interaction strength | W62A |
| decreasing interaction strength | M83A |
| decreasing interaction strength | L81A |

Variants of: B2
Details: with IZUMO1R

| effect of a mutation on the interaction | Variant |
| --- | --- |
| decreasing interaction strength | W148A |
